Sequences and labels used below:
B1: CE115HA000 A99D (antibody, human IgG1, kappa, L234A L235A, N297A, name in Kabat numbering)
heavy: QVQLVESGGGVVQPGRSLRLSCAASGFTFSNAWMHWVRQAPGKGLEWVAQIKAKSNNYATYYAESVKGRFTISRDDSKNSLYLQMNSLKTEDTAVYYCRYVHYGDYYGVDAWGQGTTVTVSSASTKGPSVFPLAPSSKSTSGGTAALGCLVKDYFPEPVTVSWNSGALTSGVHTFPAVLQSSGLYSLSSVVTVPSSSLGTQTYICNVNHKPSNTKVDKKVEPKSCDKTHTCPPCPAPEAAGGPSVFLFPPKPKDTLMISRTPEVTCVVVDVSHEDPEVKFNWYVDGVEVHNAKTKPREEQYASTYRVVSVLTVLHQDWLNGKEYKCKVSNKALPAPIEKTISKAKGQPREPQVYTLPPSRCELTKNQVSLSCAVKGFYPSDIAVEWESNGQPENNYKTTPPVLDSDGSFFLVSKLTVDKSRWQQGNVFSCSVMHEALHNHYTQKSLSLSPDYKDDDDK
chain: EPKSSDKTHTCPPCPAPELLGGPSVFLFPPKPKDTLMISRTPEVTCVVVDVSHEDPEVKFNWYVDGVEVHNAKTKPREEQYNSTYRVVSVLTVLHQDWLNGKEYKCKVSNKALPAPIEKTISKAKGQPREPQVCTLPPSRDELTKNQVSLWCLVKGFYPSDIAVEWESNGQPENNYKTTPPVLDSDGSFFLYSKLTVDKSRWQQGNVFSCSVMHEALHNRYTQKSLSLSP
light: DIVMTQSPLSLPVTPGEPASISCRSSQSLVHSNRNTYLHWYQQKPGQAPRLLIYKVSNRFSGVPDRFSGSGSGTDFTLKISRVEAEDVGVYYCGQGTQVPYTFGQGTKLEIKRTVAAPSVFIFPPSDEQLKSGTASVVCLLNNFYPREAKVQWKVDNALQSGNSQESVTEQDSKDSTYSLSSTLTLSKADYEKHKVYACEVTHQGLSSPVTKSFNRGEC
notes: one-arm antibody
B2: CE115HA000 A99L (antibody, human IgG1, kappa, L234A L235A, N297A, name in Kabat numbering)
heavy: QVQLVESGGGVVQPGRSLRLSCAASGFTFSNAWMHWVRQAPGKGLEWVAQIKAKSNNYATYYAESVKGRFTISRDDSKNSLYLQMNSLKTEDTAVYYCRYVHYGLYYGVDAWGQGTTVTVSSASTKGPSVFPLAPSSKSTSGGTAALGCLVKDYFPEPVTVSWNSGALTSGVHTFPAVLQSSGLYSLSSVVTVPSSSLGTQTYICNVNHKPSNTKVDKKVEPKSCDKTHTCPPCPAPEAAGGPSVFLFPPKPKDTLMISRTPEVTCVVVDVSHEDPEVKFNWYVDGVEVHNAKTKPREEQYASTYRVVSVLTVLHQDWLNGKEYKCKVSNKALPAPIEKTISKAKGQPREPQVYTLPPSRCELTKNQVSLSCAVKGFYPSDIAVEWESNGQPENNYKTTPPVLDSDGSFFLVSKLTVDKSRWQQGNVFSCSVMHEALHNHYTQKSLSLSPDYKDDDDK
chain: EPKSSDKTHTCPPCPAPELLGGPSVFLFPPKPKDTLMISRTPEVTCVVVDVSHEDPEVKFNWYVDGVEVHNAKTKPREEQYNSTYRVVSVLTVLHQDWLNGKEYKCKVSNKALPAPIEKTISKAKGQPREPQVCTLPPSRDELTKNQVSLWCLVKGFYPSDIAVEWESNGQPENNYKTTPPVLDSDGSFFLYSKLTVDKSRWQQGNVFSCSVMHEALHNRYTQKSLSLSP
light: DIVMTQSPLSLPVTPGEPASISCRSSQSLVHSNRNTYLHWYQQKPGQAPRLLIYKVSNRFSGVPDRFSGSGSGTDFTLKISRVEAEDVGVYYCGQGTQVPYTFGQGTKLEIKRTVAAPSVFIFPPSDEQLKSGTASVVCLLNNFYPREAKVQWKVDNALQSGNSQESVTEQDSKDSTYSLSSTLTLSKADYEKHKVYACEVTHQGLSSPVTKSFNRGEC
notes: one-arm antibody
B3: CE115HA000 A99Q (antibody, human IgG1, kappa, L234A L235A, N297A, name in Kabat numbering)
heavy: QVQLVESGGGVVQPGRSLRLSCAASGFTFSNAWMHWVRQAPGKGLEWVAQIKAKSNNYATYYAESVKGRFTISRDDSKNSLYLQMNSLKTEDTAVYYCRYVHYGQYYGVDAWGQGTTVTVSSASTKGPSVFPLAPSSKSTSGGTAALGCLVKDYFPEPVTVSWNSGALTSGVHTFPAVLQSSGLYSLSSVVTVPSSSLGTQTYICNVNHKPSNTKVDKKVEPKSCDKTHTCPPCPAPEAAGGPSVFLFPPKPKDTLMISRTPEVTCVVVDVSHEDPEVKFNWYVDGVEVHNAKTKPREEQYASTYRVVSVLTVLHQDWLNGKEYKCKVSNKALPAPIEKTISKAKGQPREPQVYTLPPSRCELTKNQVSLSCAVKGFYPSDIAVEWESNGQPENNYKTTPPVLDSDGSFFLVSKLTVDKSRWQQGNVFSCSVMHEALHNHYTQKSLSLSPDYKDDDDK
chain: EPKSSDKTHTCPPCPAPELLGGPSVFLFPPKPKDTLMISRTPEVTCVVVDVSHEDPEVKFNWYVDGVEVHNAKTKPREEQYNSTYRVVSVLTVLHQDWLNGKEYKCKVSNKALPAPIEKTISKAKGQPREPQVCTLPPSRDELTKNQVSLWCLVKGFYPSDIAVEWESNGQPENNYKTTPPVLDSDGSFFLYSKLTVDKSRWQQGNVFSCSVMHEALHNRYTQKSLSLSP
light: DIVMTQSPLSLPVTPGEPASISCRSSQSLVHSNRNTYLHWYQQKPGQAPRLLIYKVSNRFSGVPDRFSGSGSGTDFTLKISRVEAEDVGVYYCGQGTQVPYTFGQGTKLEIKRTVAAPSVFIFPPSDEQLKSGTASVVCLLNNFYPREAKVQWKVDNALQSGNSQESVTEQDSKDSTYSLSSTLTLSKADYEKHKVYACEVTHQGLSSPVTKSFNRGEC
notes: one-arm antibody
B4: CE115HA000 A99F (antibody, human IgG1, kappa, L234A L235A, N297A, name in Kabat numbering)
heavy: QVQLVESGGGVVQPGRSLRLSCAASGFTFSNAWMHWVRQAPGKGLEWVAQIKAKSNNYATYYAESVKGRFTISRDDSKNSLYLQMNSLKTEDTAVYYCRYVHYGFYYGVDAWGQGTTVTVSSASTKGPSVFPLAPSSKSTSGGTAALGCLVKDYFPEPVTVSWNSGALTSGVHTFPAVLQSSGLYSLSSVVTVPSSSLGTQTYICNVNHKPSNTKVDKKVEPKSCDKTHTCPPCPAPEAAGGPSVFLFPPKPKDTLMISRTPEVTCVVVDVSHEDPEVKFNWYVDGVEVHNAKTKPREEQYASTYRVVSVLTVLHQDWLNGKEYKCKVSNKALPAPIEKTISKAKGQPREPQVYTLPPSRCELTKNQVSLSCAVKGFYPSDIAVEWESNGQPENNYKTTPPVLDSDGSFFLVSKLTVDKSRWQQGNVFSCSVMHEALHNHYTQKSLSLSPDYKDDDDK
chain: EPKSSDKTHTCPPCPAPELLGGPSVFLFPPKPKDTLMISRTPEVTCVVVDVSHEDPEVKFNWYVDGVEVHNAKTKPREEQYNSTYRVVSVLTVLHQDWLNGKEYKCKVSNKALPAPIEKTISKAKGQPREPQVCTLPPSRDELTKNQVSLWCLVKGFYPSDIAVEWESNGQPENNYKTTPPVLDSDGSFFLYSKLTVDKSRWQQGNVFSCSVMHEALHNRYTQKSLSLSP
light: DIVMTQSPLSLPVTPGEPASISCRSSQSLVHSNRNTYLHWYQQKPGQAPRLLIYKVSNRFSGVPDRFSGSGSGTDFTLKISRVEAEDVGVYYCGQGTQVPYTFGQGTKLEIKRTVAAPSVFIFPPSDEQLKSGTASVVCLLNNFYPREAKVQWKVDNALQSGNSQESVTEQDSKDSTYSLSSTLTLSKADYEKHKVYACEVTHQGLSSPVTKSFNRGEC
notes: one-arm antibody
B5: CE115HA000 A99S (antibody, human IgG1, kappa, L234A L235A, N297A, name in Kabat numbering)
heavy: QVQLVESGGGVVQPGRSLRLSCAASGFTFSNAWMHWVRQAPGKGLEWVAQIKAKSNNYATYYAESVKGRFTISRDDSKNSLYLQMNSLKTEDTAVYYCRYVHYGSYYGVDAWGQGTTVTVSSASTKGPSVFPLAPSSKSTSGGTAALGCLVKDYFPEPVTVSWNSGALTSGVHTFPAVLQSSGLYSLSSVVTVPSSSLGTQTYICNVNHKPSNTKVDKKVEPKSCDKTHTCPPCPAPEAAGGPSVFLFPPKPKDTLMISRTPEVTCVVVDVSHEDPEVKFNWYVDGVEVHNAKTKPREEQYASTYRVVSVLTVLHQDWLNGKEYKCKVSNKALPAPIEKTISKAKGQPREPQVYTLPPSRCELTKNQVSLSCAVKGFYPSDIAVEWESNGQPENNYKTTPPVLDSDGSFFLVSKLTVDKSRWQQGNVFSCSVMHEALHNHYTQKSLSLSPDYKDDDDK
chain: EPKSSDKTHTCPPCPAPELLGGPSVFLFPPKPKDTLMISRTPEVTCVVVDVSHEDPEVKFNWYVDGVEVHNAKTKPREEQYNSTYRVVSVLTVLHQDWLNGKEYKCKVSNKALPAPIEKTISKAKGQPREPQVCTLPPSRDELTKNQVSLWCLVKGFYPSDIAVEWESNGQPENNYKTTPPVLDSDGSFFLYSKLTVDKSRWQQGNVFSCSVMHEALHNRYTQKSLSLSP
light: DIVMTQSPLSLPVTPGEPASISCRSSQSLVHSNRNTYLHWYQQKPGQAPRLLIYKVSNRFSGVPDRFSGSGSGTDFTLKISRVEAEDVGVYYCGQGTQVPYTFGQGTKLEIKRTVAAPSVFIFPPSDEQLKSGTASVVCLLNNFYPREAKVQWKVDNALQSGNSQESVTEQDSKDSTYSLSSTLTLSKADYEKHKVYACEVTHQGLSSPVTKSFNRGEC
notes: one-arm antibody
B6: CE115HA000 A99K (antibody, human IgG1, kappa, L234A L235A, N297A, name in Kabat numbering)
heavy: QVQLVESGGGVVQPGRSLRLSCAASGFTFSNAWMHWVRQAPGKGLEWVAQIKAKSNNYATYYAESVKGRFTISRDDSKNSLYLQMNSLKTEDTAVYYCRYVHYGKYYGVDAWGQGTTVTVSSASTKGPSVFPLAPSSKSTSGGTAALGCLVKDYFPEPVTVSWNSGALTSGVHTFPAVLQSSGLYSLSSVVTVPSSSLGTQTYICNVNHKPSNTKVDKKVEPKSCDKTHTCPPCPAPEAAGGPSVFLFPPKPKDTLMISRTPEVTCVVVDVSHEDPEVKFNWYVDGVEVHNAKTKPREEQYASTYRVVSVLTVLHQDWLNGKEYKCKVSNKALPAPIEKTISKAKGQPREPQVYTLPPSRCELTKNQVSLSCAVKGFYPSDIAVEWESNGQPENNYKTTPPVLDSDGSFFLVSKLTVDKSRWQQGNVFSCSVMHEALHNHYTQKSLSLSPDYKDDDDK
chain: EPKSSDKTHTCPPCPAPELLGGPSVFLFPPKPKDTLMISRTPEVTCVVVDVSHEDPEVKFNWYVDGVEVHNAKTKPREEQYNSTYRVVSVLTVLHQDWLNGKEYKCKVSNKALPAPIEKTISKAKGQPREPQVCTLPPSRDELTKNQVSLWCLVKGFYPSDIAVEWESNGQPENNYKTTPPVLDSDGSFFLYSKLTVDKSRWQQGNVFSCSVMHEALHNRYTQKSLSLSP
light: DIVMTQSPLSLPVTPGEPASISCRSSQSLVHSNRNTYLHWYQQKPGQAPRLLIYKVSNRFSGVPDRFSGSGSGTDFTLKISRVEAEDVGVYYCGQGTQVPYTFGQGTKLEIKRTVAAPSVFIFPPSDEQLKSGTASVVCLLNNFYPREAKVQWKVDNALQSGNSQESVTEQDSKDSTYSLSSTLTLSKADYEKHKVYACEVTHQGLSSPVTKSFNRGEC
notes: one-arm antibody

The values that follow come from US20210388087A1 (Chugai, published 2021).

The assay deals with T1, CD3 epsilon homodimer protein (UniProt P07766 23-126).
T1 construct: also called CD3 (CD3 epsilon)
T1 sequence (P07766 23-126): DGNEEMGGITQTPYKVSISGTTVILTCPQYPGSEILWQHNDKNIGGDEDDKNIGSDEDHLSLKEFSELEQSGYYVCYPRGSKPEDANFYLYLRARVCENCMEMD
Briefly: SPR, CD3 epsilon homodimer on chip, one-arm antibody as analyte.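 Further: surface plasmon resonance at 25 °C with CD3 epsilon homodimer amine-coupled to a CM4 sensor chip, antibody injected as analyte, HBS-EP+ as running buffer.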 On the technique in general: SPR reads the build-up and loss of mass on a sensor chip optically.
Procedure: An appropriate amount of CD3 epsilon homodimer protein was immobilized onto Sensor chip CM4 (GE Healthcare Japan Corp.) by the amine coupling method. Then, the antibody having an appropriate concentration was injected thereto as an analyte and allowed to interact with the CD3 epsilon homodimer protein on the sensor chip. Then, the sensor chip was regenerated by the injection of 10 mmol/L glycine-HCl (pH 1.5). The assay was conducted at 25 degrees C., and HBS-EP+(GE Healthcare Japan Corp.) was used as a running buffer. […] Each parameter was calculated using Biacore T200 Evaluation Software (GE Healthcare Japan Corp.).
With B1, the “KD ratio (KD of CE115HA000/KD of altered form)” value (“KD ratio” below) turned out to be 1.03.

Take B2: the “KD ratio” value came out at 1.

Consider B3, for which the “KD ratio” value is 0.85.

With B4, the “KD ratio” value came to 1.15.

Turning to B5, the “KD ratio” value was 0.76.

Turning to B6, the “KD ratio” value was determined as 1.4.
